Results as given in the supplement of paper PMC10567573.

B1: VTI1B (parent)
chain: NKLLLSIIILLELAILGGLVYYKF

Variants of: B1
Assay: protein stability index of a GFP-peptide fusion (GPS, HEK-293T) (PSI 1-6); higher = more stable
Details: c terminus: a fixed tail appended
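Also: lentivirally expressed fusions sorted by FACS into six bins by GFP to DsRed ratio, PSI derived from sequencing read proportions per bin multiplied by bin number.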

Point of comparison: NKLLLSIIILLELAILGGLVYRKF, protein stability index 2.92. Against it:
- NKLLLSIIILLELAILGGLVCYKF — higher, 3.01
- NKLLLSIIILLELAILGGLVQYKF — higher, 3.37
- NKLLLSIIILLELAILGGLVFYKF — higher, 3.24
- NKLLLSIIILLELAILGGLVPYKF — lower, 2.42
- NKLLLSIIWLLELAILGGLVYYKF — lower, 1.51
- NKLLLSIIYLLELAILGGLVYYKF — lower, 2.38
- NKLLLSIILLLELAILGGLVYYKF — lower, 2.16
- NKLLLSIIKLLELAILGGLVYYKF — higher, 3.22
- NKLLLSIIHLLELAILGGLVYYKF — lower, 2.47
- NKLLLSIIVLLELAILGGLVYYKF — higher, 3.42
- NKLLLSIITLLELAILGGLVYYKF — lower, 2.58
- NKLLLSIIILLELAILGGLKYYKF — higher, 3.48
- NKLLLSIIILLELAILGGLTYYKF — higher, 3.34
- NKLLLSIIILLELAILGGLLYYKF — higher, 3.59
- NKLLLSIIILLELAILGGLNYYKF — lower, 2.81
- NKLLLSIIILLELAILGGLSYYKF — lower, 2.32
- NKLLLSIIILLELAILGGLMYYKF — higher, 3.01
- NKLLLSIMILLELAILGGLVYYKF — lower, 2.81
- NKLLLSIYILLELAILGGLVYYKF — higher, 3.31
- NKLLLSIFILLELAILGGLVYYKF — lower, 2.03
- NKLLLSIEILLELAILGGLVYYKF — lower, 2.35
- NKLLLSINILLELAILGGLVYYKF — higher, 3.11
- NKLLLSIIILLELAILGVLVYYKF — lower, 2.56
- NKLLLSIIILLELAILGQLVYYKF — lower, 2.61
- NKLLLSIIILLELAILGDLVYYKF — lower, 2.01
- NKLLLSIIILLELAILGWLVYYKF — lower, 2.52
- NKLLLSIIILLELAILGRLVYYKF — lower, 2.65
- NKLLLSIIILKELAILGGLVYYKF — lower, 2.59
- NKLLLSIIILSELAILGGLVYYKF — higher, 3.88
- NKLLLSIIILFELAILGGLVYYKF — lower, 2.39
- NKLLLSIIILWELAILGGLVYYKF — higher, 3.2
- NKLLLSIIILTELAILGGLVYYKF — lower, 2.53
- NKLELSIIILLELAILGGLVYYKF — lower, 2.47
- NKLCLSIIILLELAILGGLVYYKF — lower, 2.35
- NKLALSIIILLELAILGGLVYYKF — higher, 3.17
- NKLNLSIIILLELAILGGLVYYKF — lower, 2.28
- NKLQLSIIILLELAILGGLVYYKF — higher, 3.91
- NKLFLSIIILLELAILGGLVYYKF — higher, 3.51
- RKLLLSIIILLELAILGGLVYYKF — higher, 2.99
- EKLLLSIIILLELAILGGLVYYKF — higher, 4.24
- KKLLLSIIILLELAILGGLVYYKF — lower, 1.85
- DKLLLSIIILLELAILGGLVYYKF — higher, 3
- TKLLLSIIILLELAILGGLVYYKF — higher, 3.56
- IKLLLSIIILLELAILGGLVYYKF — higher, 2.97
- NKLLLSIIILLELAILGGLVYLKF — higher, 3.17
- NKLLLSIIILLELAILGGLVYFKF — lower, 2.59
- NKLLLSIIILLELAILGGLVYCKF — lower, 2.53
- NKLLLSIIILLELAILGGLVYIKF — higher, 3.12
- NKLLLSIIILLELAILGGLVYPKF — higher, 3.8
- NKLLLSIIILLELAILGGLVYAKF — higher, 3.55
- NKLLLSIIILLELAILGGLVYVKF — higher, 3.2
- NKLLLSIIILLELAILGGLVYQKF — higher, 3.06
- NKLLLSIIILLELAILGGLVYHKF — higher, 3.4
- NKLLLSIIILLEAAILGGLVYYKF — lower, 2.4
- NKLLLSIIILLEGAILGGLVYYKF — higher, 3.93
- NKLLLSIIILLEDAILGGLVYYKF — lower, 2.7
- NKLLLSIIILLELAILGGLVYYCF — lower, 2.27
- NKLLLSIIILLELAILGGLVYYDF — lower, 2.65
- NKLLLSIIILLELAILGGLVYYFF — lower, 2.1
- NKLLLSIIILLELACLGGLVYYKF — lower, 2.38
- NKLLLSIIILLELAMLGGLVYYKF — higher, 3.49
- NKLLLSIIILLELADLGGLVYYKF — higher, 3.64
- NKLLLSIIILLELAELGGLVYYKF — lower, 2.52
- NKLLLSIIILLELAFLGGLVYYKF — lower, 2.06
- NKLLLSIIILLELANLGGLVYYKF — lower, 1.43
- NKLLLSIIILLELASLGGLVYYKF — higher, 3
- NKLLLSIIILLELARLGGLVYYKF — lower, 2.12
- NKLLLSIIILLELALLGGLVYYKF — lower, 2.62
- NKLLLSIIILLELAVLGGLVYYKF — higher, 4.17
- NKLLLSIIILLELAPLGGLVYYKF — higher, 3.21
- NKLLLSIIILLELAQLGGLVYYKF — lower, 2.44
- NKLLLSNIILLELAILGGLVYYKF — lower, 2.1
- NKLLLSHIILLELAILGGLVYYKF — lower, 2.65
- NKLLLSQIILLELAILGGLVYYKF — lower, 2.44
- NKLLLSVIILLELAILGGLVYYKF — lower, 2.32
- NKLLLSGIILLELAILGGLVYYKF — higher, 3.04
- NKLLLSFIILLELAILGGLVYYKF — lower, 2.31
- NKLLLSWIILLELAILGGLVYYKF — higher, 3.61
- NKLLLSRIILLELAILGGLVYYKF — higher, 3.87
- NKLLLSTIILLELAILGGLVYYKF — higher, 3.78
- NKLLLSIIILLELAILGGDVYYKF — higher, 3.31
- NKLLLSIIILLELAILGGKVYYKF — lower, 2.67
- NKLLLSIIILLELAILGGNVYYKF — higher, 3.02
- NKLLLSIIILLELAILGGPVYYKF — higher, 3.45
- NKLLLSIIILLELAILGGTVYYKF — lower, 1.82
- NKLLLSIIILLELAILGGCVYYKF — lower, 2.05
- NKLLLPIIILLELAILGGLVYYKF — higher, 3.12
- NKLLLHIIILLELAILGGLVYYKF — lower, 2.51
- NKLLLCIIILLELAILGGLVYYKF — higher, 3.11
- NKLLLVIIILLELAILGGLVYYKF — lower, 2.5
- NKLLLDIIILLELAILGGLVYYKF — lower, 2.42
- NKLLLMIIILLELAILGGLVYYKF — lower, 2.86
- NKLLLQIIILLELAILGGLVYYKF — higher, 3.32
